Reference: the supplement of paper PMC10567573

B1: MMP1 (parent)
chain: FVRGDHRDNSPFDGPGGNLAHAFQ
B2: ELF3 (parent)
chain: RLVYKFGKNSSGWKEEEVLQSRN

Variants of: B1
Assay: protein stability index of a GFP-peptide fusion (GPS, HEK-293T) (PSI 1-6); higher = more stable
Conditions: c terminus: a fixed tail appended
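Note: lentivirally expressed fusions sorted by FACS into six bins by GFP to DsRed ratio, PSI derived from sequencing read proportions per bin multiplied by bin number.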

Protein stability index: each site, then its substitutions
P11: G 2.89; F 1.83; A 1.81
A22: P 3.37; Q 1.46; L 1.74; H 2
F23: V 1.99; C 1.38; R 2.03; M 2.25
P15: A 1.53; E 2.37; T 1.38; M 2.72; L 1.95; N 2.11
D13: C 2.36; R 1.48
G14: C 2.99; S 1.89; L 2.44
R7: S 1.37; Y 2.18; D 1.56
D8: G 1.84; T 2.28; K 2.78; Q 3.21
S10: C 1.83; H 1.51; L 1.83; F 2.42; D 1.35
R3: Y 1.93; K 1.45; I 2.11
F1: W 2.48
N9: H 4.14; D 1.8
H6: N 1.33; A 2.42; V 2.48; I 1.55
V2: R 3.48
D5: I 1.66; R 3.46
G17: Q 1.95
H21: N 2.15; E 1.94
N18: G 1.99; L 3.23; S 2.18; A 2.74
L19: A 1.38
Q24: A 1.88; H 1.84; V 2.39

Variants of: B2
Assay: as above
Conditions: c terminus: native

Protein stability index: each site, then its substitutions
E16: V 1.04; I 3.06; Q 1.25; L 3.56; F 3.9; H 1.25; Y 2.91; D 2.15; C 1.94; G 1.5; N 2.51
G12: D 3.19; W 1.88; Y 2.57; S 2.5; V 1.79; I 1.76; T 1.87; P 2.46; N 1.98; F 1.82; Q 1.95
F6: L 1.61; Q 3.08; C 1.42; R 3.06; V 3.89; T 3.5; E 4.52; P 3.47; W 2.12; G 3.75; I 2.26
S11: Y 2.21; P 2.79; K 1.6; F 1.09; T 2.83; V 3.33; R 2.05; D 3.33; H 1.89; L 1.78
Y4: F 2.35; G 2.69; L 1.83; R 1.23; E 3.47; P 3.43; Q 3.16; M 2.55; D 3.73; V 2.82; S 2.42; C 1.95; K 3.36; H 3.8
N9: R 2.91; F 1.98; A 1.7; K 1.97; H 1.68; L 2.59; G 1.9; M 4.34; V 2.08; E 3.08; T 1.73; D 3.19; P 2.33; S 2.22
R1: M 2.4; K 2.55; V 1.24; Q 2.67; N 3; I 1.62; Y 1.69; T 2.18; F 2.22; S 1.69; G 2.87; A 2.54; E 3.17
N23: D 2.7; E 3.68; Q 1.87; W 2.13; Y 2.31; A 2.28; M 1.81; T 2.37; S 2.51; V 2.62; K 3.52; I 1.8; C 1.7; F 2.86; P 3.22
K8: H 2.26; A 2.77; L 1.92; V 1.91; M 1.38; R 1.31; P 2.25; F 1.86; I 2.14; Y 1.42; D 3.36
G7: W 3.57; Y 2.41; S 2.67; N 2.64; V 1.49; D 4.11; H 1.8; I 1.46; K 1.9; T 2.31; R 2.29
V18: Q 2.35; I 2.32; Y 1.25; T 2.16; N 2.59; R 2.29; W 1.62; A 2.49; H 3.01; C 2.44; D 3.45; F 1.73; L 2.08; G 2.9; E 3.17
K14: S 2.89; R 2.43; Q 3; H 1.41; P 2.58; T 2.32; E 3.31; M 2.88; L 2.7; C 2.12
L19: Y 1.52; K 3.02; D 4.52; I 2.67; Q 3.85; V 2.55; P 3.12; H 2.98; G 3.19; T 3.84; F 1.49; M 2.43
L2: H 3.38; E 4.2; V 2.71; A 3.2; W 1.58; Q 3.04; I 2.45; C 2.29; N 3.41; M 2.99; T 2.84; P 2.66; G 2.78; D 4.22; R 2.87
Q20: M 2.06; G 3.4; E 3.52; I 1.71; P 2.38; N 3.32; D 3.28; S 2.4; W 1.67; K 1.25; Y 1.79; T 1.58; H 1.76; L 2.19; V 1.71
R22: C 2.35; K 3.75; T 3.51; Q 3.02; H 3.53; L 2.56; Y 2.06; D 4.7; N 3.96; A 2.85
K5: A 1.76; C 2.52; M 1.91; I 1.36; Y 2.16; S 2.5; P 1.89; H 1.98; D 2.8; E 2.89
W13: Y 2.96; C 4.09; D 4.86; P 4.45; A 4.73; V 3; T 4.2; F 3.03; M 3.91; G 4.27; E 4.85; S 3.78; H 4.28; R 3.74; I 3.91
V3: S 2.7; P 2.63; N 3.46; M 2.38; R 2.75; G 2.48; A 3.88; H 2.53; F 2.38; Y 2.37; K 2.49; D 4.2; E 4.75
E15: K 3.27; A 1.43; C 2.49; W 1.86; N 1.94; G 1.76; V 2.49; I 1.55; Q 1.76
E17: G 1.93; N 1.6; V 1.98; H 1.11; M 2.27; D 1.75; A 2.06; P 2.22; F 1.75; K 1.3
S10: E 2.86; P 2.1; Y 1.56; D 3.25; I 1.66; T 3.02; F 1.34; A 2.64; C 2.55; K 2.23
S21: Y 2.72; G 2.26; E 3.19; I 2.41; C 2.39; Q 3.82; M 2.31; K 2.95; D 3.56; F 1.94; L 3.31
